From publication PMC5371411 (mBio, 2017) come the findings set out here.

Several values for one entry are separate records, joined by “and”; a condition that tells them apart may be missing. Equal entries are not always repeated.

The target in one series is T1, EspC His-Middle segment (enteropathogenic Escherichia coli (EPEC), UniProt Q9EZE7 382-708).
T1 construct: also called Middle fragment; source: E. coli BL21(D3)pLysS, pRSET-A, purified (Ni-NTA agarose); not shown: 6xHis, N-terminal, kept
T1 sequence: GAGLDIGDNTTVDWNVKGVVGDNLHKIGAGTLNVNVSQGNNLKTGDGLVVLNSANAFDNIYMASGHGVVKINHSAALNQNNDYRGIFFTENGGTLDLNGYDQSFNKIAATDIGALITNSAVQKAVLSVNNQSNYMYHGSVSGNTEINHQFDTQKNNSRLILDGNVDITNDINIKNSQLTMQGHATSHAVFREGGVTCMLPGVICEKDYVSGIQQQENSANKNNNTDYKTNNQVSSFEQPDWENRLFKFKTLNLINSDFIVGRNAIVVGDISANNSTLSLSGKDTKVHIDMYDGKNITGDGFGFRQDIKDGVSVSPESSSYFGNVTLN
In words: SPR; His-EspA amine-coupled (EDC-NHS, 10 mM sodium acetate pH 4.0) to a planar polyethylene glycol/carboxyl sensor slide; analyte perfused in PBST at 50 µl/min; Reichert SR7500DC. The settings on record: both partners purified. Background: SPR reads the build-up and loss of mass on a sensor chip optically.

Series [1] deals with the molecule itself. Described as above.
A further series addresses T2, His-EspC (enteropathogenic Escherichia coli (EPEC), UniProt Q9EZE7 55-1032).
T2 construct: also called whole EspC passenger domain tagged with 6xHis; whole EspC protein (SPR); source: E. coli BL21(D3)pLysS, pRSET-A, purified (Ni-NTA agarose); not shown: 6xHis, N-terminal, kept
T2 sequence: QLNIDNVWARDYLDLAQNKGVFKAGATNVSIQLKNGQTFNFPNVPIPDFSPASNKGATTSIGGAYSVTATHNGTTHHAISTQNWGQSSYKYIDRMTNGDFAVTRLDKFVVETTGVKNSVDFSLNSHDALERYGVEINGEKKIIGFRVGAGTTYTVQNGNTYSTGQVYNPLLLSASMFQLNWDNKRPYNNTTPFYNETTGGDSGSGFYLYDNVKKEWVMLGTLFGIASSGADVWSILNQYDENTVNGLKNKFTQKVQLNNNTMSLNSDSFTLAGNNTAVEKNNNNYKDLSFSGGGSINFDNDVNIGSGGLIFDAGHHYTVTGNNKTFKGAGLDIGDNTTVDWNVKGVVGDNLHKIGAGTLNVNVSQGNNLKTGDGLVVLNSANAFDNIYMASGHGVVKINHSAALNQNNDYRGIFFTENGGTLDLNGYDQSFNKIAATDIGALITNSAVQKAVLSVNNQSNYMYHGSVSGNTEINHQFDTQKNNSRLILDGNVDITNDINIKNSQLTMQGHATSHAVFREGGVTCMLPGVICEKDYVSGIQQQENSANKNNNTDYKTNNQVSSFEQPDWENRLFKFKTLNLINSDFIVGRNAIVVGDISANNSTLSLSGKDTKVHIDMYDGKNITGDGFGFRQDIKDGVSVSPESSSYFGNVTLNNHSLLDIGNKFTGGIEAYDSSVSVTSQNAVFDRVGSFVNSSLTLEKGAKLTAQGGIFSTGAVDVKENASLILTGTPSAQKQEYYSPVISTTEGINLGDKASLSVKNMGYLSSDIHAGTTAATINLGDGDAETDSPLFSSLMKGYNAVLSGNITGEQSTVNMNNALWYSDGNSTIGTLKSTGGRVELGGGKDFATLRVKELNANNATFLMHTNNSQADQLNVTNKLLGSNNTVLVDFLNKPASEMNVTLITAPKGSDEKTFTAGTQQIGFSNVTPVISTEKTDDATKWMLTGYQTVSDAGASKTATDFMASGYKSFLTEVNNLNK
The experiment in a line: SPR; His-EspC coupled by its His tag and EDC-NHS on a nickel-nitrilotriacetic acid sensor slide; His-EspA or His-EspA/His-EspD perfused in PBST at 50 µl/min; Reichert SR7500DC. The settings on record: both partners purified.

In a further series the target is EspCS256I (enteropathogenic Escherichia coli (EPEC), UniProt Q9EZE7 54-1018, S256I). In words: pull-down. To be noted: both partners purified.

B1: His-EspA (natural protein)
chain: MDTSTTASVASANASTSTSMAYDLGSMSKDDVIDLFNKLGVFQAAILMFAYMYQAQSDLSIAKFADMNEASKESTTAQKMANLVDAKIADVQSSSDKNAKAQLPDEVISYINDPRNDITISGIDNINAQLGAGDLQTVKAAISAKANNLTTTVNNSQLEIQQMSNTLNLLTSARSDMQSLQYRTISGISLGK
notes: also called EPEC secreted protein A
Take B1: the Kd with EspC His-Middle segment was 3.45 nM and 3.43 nM; in series [1], 2.64 nM; with His-EspC, 25.1 nM. In addition, the binding result in the series with EspCS256I was “binds”.

As usually defined, the Kd is the equilibrium constant for the complex coming apart.
